Patent US20240101665A1

How the values were obtained:
[1] = target: human G Protein coupled receptor 48 (GPR48), endogenous, in colorectal cancer cells, tissues and organoids (human) (UniProt Q9BXB1); test: western blot on P6C lysate, dilution series of antibody
[2] = target: human G Protein coupled receptor 48 (GPR48), endogenous, in colorectal cancer cells, tissues and organoids (human) (UniProt Q9BXB1); test: cell-based or functional assay
[3] = target: human G Protein coupled receptor 48 (GPR48), endogenous, in colorectal cancer cells, tissues and organoids (human) (UniProt Q9BXB1); test: flow cytometry on P6C cells, dilution series of antibody, FITC goat anti-mouse IgG

titer (reciprocal dilution (1:x) of 1 mg/ml) [1]: 300
inhibition rate, colony formation of HCT116 cells, 10 µg/ml antibody [2]: 15.4%
inhibition rate, colony formation of P6C cells, 10 µg/ml antibody [2]: 9.7%
inhibition rate, colony formation of SW480 cells, 10 µg/ml antibody [2]: 26.1%
dilution factor (dilution factor) [3]: 100
Substance: Commercial GPR48 monoclonal antibody, R&D Systems, clone #852229, product number MAB7750
